{
  "source": "the nanobody polyreactivity screen of Harvey et al. (2022)",
  "experiment": "yeast display, Sf9 membrane polyspecificity reagent, FACS + sequencing; frameworks hold sequencing errors",
  "how_it_was_run": "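Using colony PCR, genes from sorted yeast display clones were amplified, then sequenced on MiSeq at 2 × 250 and filtered by CDR length. The clones had been stained with 10% biotinylated, detergent-solubilized Sf9 membrane reagent for 1 hour at 4 °C and sorted by FACS into low and high (top ~1%) gates on anti-HA and streptavidin fluorescence. Polyreactivity labels come from the gate of origin.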",
  "data": [
    {"sequence": "QVQLEESGGGLVQAGGSLRLSCAASGSIFQINAMGWYRQAPGKERELVAAITRGGGTTYYADSVKGRFTISRDNAKNTVYLQMNSLKPEDTAVYYCAADFERRRYDYWGQGTQVTVSS", "values": [
      {"measurement": "polyreactivity (PSR sort gate)", "value": "low polyreactivity"}
    ]},
    {"sequence": "QVQLVESGGGLVQAGGSLRLSCAASGFTFQYYAMGWYRQEPGKERELVAAISWGGGSTYYADSVKGRFTISRDNAKNTVYLQMNSLKPEDTAVYYCNAYEYLSAGYDYWGQGTQVTVSS", "values": [
      {"measurement": "polyreactivity (PSR sort gate)", "value": "low polyreactivity"}
    ]},
    {"sequence": "QVQLVESGGGLVQAGGSLSLSCAASGSIFDYYDMGWYRQSPGKERQLVAAITGSGGNTYYADSVKGRFTISRDNAKNTVYLQMNSLKPEDTAVYYCAAYGLYGAHTGYGSWGQCTQVTVSS", "values": [
      {"measurement": "polyreactivity (PSR sort gate)", "value": "high polyreactivity"}
    ]},
    {"sequence": "QVQLVESGGGLVQAGGSLRLSCAASGRTFRGNAMGWYRQAPGKERELVAAGGSTYYADSVKGRFTISRDNAKNTVYLQINSLKPEDTAVYYCAAALGFSRYSWFCYGYWGQGTQVTGSS", "values": [
      {"measurement": "polyreactivity (PSR sort gate)", "value": "low polyreactivity"}
    ]},
    {"sequence": "QVQLVESGGGLVQAGGTLRLSCAASGSIFTHYAMGWYRQAPGKERELVAAISRRGGSTYYADSVKGRFTNSRDNAKNTVYLQMNSLKPEDSAVYYCAKSPDTAKEYDYWGQGTQVTVSS", "values": [
      {"measurement": "polyreactivity (PSR sort gate)", "value": "high polyreactivity"}
    ]},
    {"sequence": "QVQLVESGGGLVQAGGSLRLSCAASGRIFTTYAMGWYRQAPGKERELVAAISRSGGSTYYADSVKGRFTISRDNAKNTVYLQMKSLKPEDTAVYYCAAVPTSNSFRSSFYYWGQGTQVTVSS", "values": [
      {"measurement": "polyreactivity (PSR sort gate)", "value": "high polyreactivity"}
    ]},
    {"sequence": "QVQHVESGGGLVQAGGSLRLSCAASGRIFRGYAMGWYRQAPGKERELVAVISYSGTRTYYADSVKGRFTISRDNAKNTVYLQMNSLKPEDTAVYYCNARANGFKDGYWGQGTQVTVSS", "values": [
      {"measurement": "polyreactivity (PSR sort gate)", "value": "high polyreactivity"}
    ]},
    {"sequence": "QVQLVESGGGLVQAGGSLRLSCAASGRTFSVYTMGWYRQAPGKERELVASINWSGGRTYYADSVKGRFTISRDNAKNTVYLQMNSLKPEDTAVYYCAATGWRTLYDYWGQGTQVTVSS", "values": [
      {"measurement": "polyreactivity (PSR sort gate)", "value": "high polyreactivity"}
    ]}
  ]
}
